This assay has as its target T1, recombinant GST-BIK1 (Arabidopsis thaliana, UniProt O48814 1-395).
T1 construct: BIK1, receptor-like cytoplasmic kinase of Arabidopsis thaliana; source: recombinant protein
T1 sequence (looked up): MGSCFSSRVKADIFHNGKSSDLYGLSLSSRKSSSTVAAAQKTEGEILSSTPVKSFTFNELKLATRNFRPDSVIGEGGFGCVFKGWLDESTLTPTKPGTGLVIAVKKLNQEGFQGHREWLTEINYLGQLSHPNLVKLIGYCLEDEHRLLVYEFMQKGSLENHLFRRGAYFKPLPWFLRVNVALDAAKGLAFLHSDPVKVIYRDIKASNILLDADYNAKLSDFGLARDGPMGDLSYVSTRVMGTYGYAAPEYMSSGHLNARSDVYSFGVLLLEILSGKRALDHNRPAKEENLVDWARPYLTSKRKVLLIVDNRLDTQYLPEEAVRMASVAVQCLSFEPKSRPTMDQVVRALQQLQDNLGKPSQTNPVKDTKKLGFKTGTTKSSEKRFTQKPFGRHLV
Briefly: pull-down; recombinant MBP-PP2C38 and GST-BIK1 in column buffer (50 mM Tris pH 7.5, 50 mM NaCl, 0.2% IGEPAL CA-630), 4°C; MBP pull-down on amylose resin. The settings on record: both partners purified.

B1: recombinant MBP-PP2C38 (enzyme, Arabidopsis thaliana, UniProt Q9LHJ9 1-385, looked up)
chain: MVSSATILRMVAPCWRRPSVKGDHSTRDANGRCDGLLWYKDSGNHVAGEFSMSVIQANNLLEDHSKLESGPVSMFDSGPQATFVGVYDGHGGPEAARFVNKHLFDNIRKFTSENHGMSANVITKAFLATEEDFLSLVRRQWQIKPQIASVGACCLVGIICSGLLYIANAGDSRVVLGRLEKAFKIVKAVQLSSEHNASLESVREELRSLHPNDPQIVVLKHKVWRVKGIIQVSRSIGDAYLKKAEFNREPLLAKFRVPEVFHKPILRAEPAITVHKIHPEDQFLIFASDGLWEHLSNQEAVDIVNTCPRNGIARKLIKTALREAAKKREMRYSDLKKIDRGVRRHFHDDITVIVVFLDSHLVSRSTSRRPLLSISGGGDLAGPST
notes: PP2C38, protein phosphatase 2C of Arabidopsis thaliana (At3g12620); 'PP2C38 CDS was inserted between BamHI and SalI restriction sites of pMAL-c4E'; source: recombinant protein (PP2C38 CDS in pMAL-c4E, NEB)
With B1, the binding result is reported as “binds”.

These data come from article PMC4975489, “The Arabidopsis Protein Phosphatase PP2C38 Negatively Regulates the Central Immune Kinase BIK1” (PLoS Pathogens, 2016).
